# Test results from US20030091568A1, “Inhibitors for the formation of soluble human CD23” (priority 2000, published 2003).
# T1: ADAM9 (Mus musculus, UniProt Q61072)
# T1 construct: expressed in transfected cells; host or cells: CHO AA8 Tet-Off cells (Clontech), clone 3, co-expressing human CD23b
# T1 sequence (Q61072 206-845 limits assumed): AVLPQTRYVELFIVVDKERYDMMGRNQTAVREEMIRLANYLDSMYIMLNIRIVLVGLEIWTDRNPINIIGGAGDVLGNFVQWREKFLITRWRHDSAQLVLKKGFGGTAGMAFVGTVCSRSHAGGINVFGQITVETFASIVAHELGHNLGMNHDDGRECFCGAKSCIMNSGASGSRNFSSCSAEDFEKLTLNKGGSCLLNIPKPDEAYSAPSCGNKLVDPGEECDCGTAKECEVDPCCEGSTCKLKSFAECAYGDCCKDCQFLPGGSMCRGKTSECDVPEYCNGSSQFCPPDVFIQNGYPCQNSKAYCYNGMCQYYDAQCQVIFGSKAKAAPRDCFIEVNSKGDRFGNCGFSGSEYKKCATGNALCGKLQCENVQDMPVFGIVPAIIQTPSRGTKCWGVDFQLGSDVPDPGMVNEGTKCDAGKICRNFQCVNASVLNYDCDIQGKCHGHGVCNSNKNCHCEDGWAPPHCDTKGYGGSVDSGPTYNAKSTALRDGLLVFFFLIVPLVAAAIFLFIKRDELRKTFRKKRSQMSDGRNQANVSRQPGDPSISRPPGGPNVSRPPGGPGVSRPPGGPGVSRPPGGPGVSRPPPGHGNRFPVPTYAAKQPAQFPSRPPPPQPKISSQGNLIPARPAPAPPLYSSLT
# B1: TIMP-3: tissue inhibitor of metalloproteinases 3 (protein, UniProt P35625 24-211, looked up)
# Metalloproteinase inhibitor 3: CTCSPSHPQDAFCNSDIVIRAKVVGKKLVKEGPFGTLVYTIKQMKMYRGFTKMPHVQYIHTEASESLCGLKLEVNKYQYLLTGRVYDGKMYTGLCNFVERWDQLTLSQRKGLNYRYHLGCNCKIKSCYYLPCFVTSKNECLWTDMLSNFGYPGYQSKHYACIRQKGGYCSWYRGWAPPDKSIINATDP
# Key:
# ADAM9 = molecular target: T1, ADAM9; experiment: CD23 shedding in CHO AA8 clone 3 cells with tet-regulated ADAM9 "On" (s-CD23 ELISA); type: cell-based, murine; settings: CHO AA8 clone 3, absence of tetracycline (ADAM9 "On"), 16 hours; 2 μM batimastat or 20 nM-1 μM TIMP; FIG. 3A
# Description: CHO AA8 cells (Clontech), which constitutively express human CD23b and a tet regulatable ADAM9 (clone 3, described above), were cultured in the absence of tetracycline (ADAM9 expression “On”) as well as the presence or absence of the metalloproteinase inhibitor batimastat (BB-94, British Biotechnology) as a broad spectrum MMP inhibitor, as well as various concentrations of either TIMP-1, TIMP-2 or TIMP-3. After 16 hours, aliquots of the respective culture supernatants were analysed by ELISA for the formation of s-CD23 (The Binding Site).
# […] cells were cultured in the presence (ADAM9 expression “Off”) or absence (ADAM9 expression “On”) of tetracylin (Tc). Under both conditions, the influence of batimastat (BB-94) on CD23 shedding was analyzed. The concentration of s-CD23 in the culture supernatants was determined by ELISA. In parallel, the produced s-CD23 cleavage products were analyzed by Western blot analyses (FIG. 4). Untransfected CHO AA8 cells (WT) were used as a negative control in the ELISA assays. In the absence of Tc (ADAM9 expression “On”), about 2-3 times the amount of s-CD23 was produced compared to cells kept in the presence of Tc (ADAM9 expression “Off”). […] The 33 kDa form of s-CD23 and, in minor amounts, the 25 kDa cleavage fragment were detected by Western blot analyses. […]
# ADAM17 (TACE) = ADAM17 (TACE) (Homo sapiens, UniProt P78536); settings: stated as known; cited from earlier work
# ADAM17 (TACE), sequence (P78536 215-824, species assumed): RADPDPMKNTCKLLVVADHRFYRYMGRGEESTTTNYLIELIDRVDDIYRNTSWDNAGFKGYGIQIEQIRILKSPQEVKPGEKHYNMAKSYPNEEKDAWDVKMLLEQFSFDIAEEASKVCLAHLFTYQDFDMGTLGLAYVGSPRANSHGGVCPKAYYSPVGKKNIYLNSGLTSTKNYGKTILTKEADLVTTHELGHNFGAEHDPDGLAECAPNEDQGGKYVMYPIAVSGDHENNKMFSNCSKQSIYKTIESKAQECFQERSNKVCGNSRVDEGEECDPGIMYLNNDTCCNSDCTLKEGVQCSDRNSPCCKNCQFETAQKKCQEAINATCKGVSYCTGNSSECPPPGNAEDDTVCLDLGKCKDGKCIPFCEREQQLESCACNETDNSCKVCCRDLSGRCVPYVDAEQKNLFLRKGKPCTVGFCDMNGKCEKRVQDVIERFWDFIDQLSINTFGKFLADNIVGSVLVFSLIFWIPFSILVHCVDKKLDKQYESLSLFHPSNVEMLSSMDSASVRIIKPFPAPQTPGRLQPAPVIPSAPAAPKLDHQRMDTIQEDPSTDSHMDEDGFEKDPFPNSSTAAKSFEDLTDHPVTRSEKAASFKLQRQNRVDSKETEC
Molecule,block of proteolytic release of CD23 from the membrane (formation of s-CD23 by ELISA) (ADAM9),inhibition of ADAM17 (TACE) (ADAM17 (TACE))
TIMP-1: tissue inhibitor of metalloproteinases 1,could not be inhibited,–
B1,could not be inhibited,inhibited
